Measurements reported in PMC5701006.

How the values were obtained:
[1] = target: H. polygyrus TGF-β mimic (Hp-TGM), recombinant, amine-coupled to the chip (Heligmosomoides polygyrus); test: SPR; BIAcore X100; hTGF-β3 or Hp-TGM amine-coupled to a CM5 chip; two-fold dilutions of hTβRI (from 4 µM downwards) injected in HBS-EP at 30 µL/min, room temperature; global fit, simple 1:1 model
[2] = target: human TGF-β3 on the chip with hTβRII extracellular domain bound (2 μM hTβRII in running buffer and samples) (human) (UniProt P37173); test: SPR; as a1 but with 2 μM hTβRII in the HBS-EP running buffer and in the injected hTβRI samples
[3] = target: H. polygyrus TGF-β mimic (Hp-TGM), recombinant, amine-coupled to the chip (Heligmosomoides polygyrus); test: as above

B1: human TGF-β type I receptor extracellular domain (receptor)
chain: LQCFCHLCTKDNFTCVTDGLCFVSVTETTDKVIHNSMCIAEIDLIPRDRPFVCAPSSKTGSVTTTYCCNQDHCNKIELPTTVKSSPGLGPVEL
- Kd [1]: 351 nM
- koff [1]: 0.00386 s⁻¹
- kon [1]: 11000 M⁻¹ s⁻¹
- Kd [2]: 367 nM
- koff [2]: 0.00179 s⁻¹
- kon [2]: 4890 M⁻¹ s⁻¹
- Kd [3]: 348 nM
- koff [3]: 0.00315 s⁻¹
- kon [3]: 9070 M⁻¹ s⁻¹
